# Literature values in paper PMC4114557.
# Read-outs that look alike come from different tables or passages of the source.
# What was measured:
# [1] = biological target: BtuB (Escherichia coli) (UniProt P06129)
# [2] = biological target: BtuB (Escherichia coli) (UniProt P06129); remark: listed apart in the source
# [3] = biological target: OmpF (Escherichia coli) (UniProt P02931)
# [4] = biological target: OmpF (Escherichia coli) (UniProt P02931); remark: listed apart in the source
# [5] = biological target: OmpF (Escherichia coli) (UniProt P02931); remark: listed apart in the source
# [6] = biological target: BtuB (Escherichia coli) (UniProt P06129); remark: listed apart in the source
# [7] = biological target: Colicin E3 R-domain (Escherichia coli) (UniProt P00646)
# [8] = biological target: Colicin E9 R-domain (Escherichia coli) (UniProt P09883)
# Sequence of UniProt P02931 (P02931 23-362): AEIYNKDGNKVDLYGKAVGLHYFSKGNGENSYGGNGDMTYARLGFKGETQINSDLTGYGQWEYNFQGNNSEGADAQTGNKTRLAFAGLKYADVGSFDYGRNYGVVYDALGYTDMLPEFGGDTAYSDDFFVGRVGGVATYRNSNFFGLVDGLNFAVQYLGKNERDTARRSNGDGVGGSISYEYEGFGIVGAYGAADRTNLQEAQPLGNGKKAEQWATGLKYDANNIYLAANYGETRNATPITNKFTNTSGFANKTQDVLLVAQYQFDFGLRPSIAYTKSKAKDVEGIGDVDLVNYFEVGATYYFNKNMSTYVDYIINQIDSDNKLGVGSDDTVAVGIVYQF
substance,measurement,setting,value
Colicin E2 R-domain (from UniProt P04419),Kd,[1],1 nM
Colicin E9 R-domain (from UniProt P09883),Kd,[2],1 nM
Colicin N T-domain (from UniProt P08083),Kd,[3],3000 nM
Colicin E9 OBS2 (from UniProt P09883),Kd,[4],24000 nM
Colicin E9 OBS1 (from UniProt P09883),Kd,[5],2000 nM
Colicin E3 R-domain (from UniProt P00646),Kd,[6],1 nM
BtuB (from UniProt P06129),Kd,[7],1 nM
same,Kd,[8],1 nM
